Test results reported in patent US20120219551A1.
Where “and” joins values, the source holds several entries; their conditions need not be identical. Equal entries are not always repeated.

What was measured:
[1] = target: FcγRIIIA on natural killer cells of human donor PBMC (human) (UniProt P08637); assay: cell-based or functional assay
[2] = target: FcγRIIIA (CD16A), F158 allotype (human) (UniProt P08637); assay: not stated; human FcRs
FcγRIIB (CD32B) (human) [3] = target: FcγRIIB (CD32B) (human) (UniProt P31994); assay: not stated; human FcRs
[4] = target: FcγRIIA (CD32A), H131 allotype (human) (UniProt P12318); assay: not stated; human FcRs
[5] = target: FcγRIIIA (CD16A), F158 allotype (human) (UniProt P08637); assay: BIAcore
[6] = target: FcγRIIIA (CD16A), V158 allotype (human) (UniProt P08637); assay: BIAcore
FcγRIIB (CD32B) (human) [7] = target: FcγRIIB (CD32B) (human) (UniProt P31994); assay: BIAcore
[8] = target: FcγRIIA (CD32A), H131 allotype (human) (UniProt P12318); assay: BIAcore
[9] = target: FcγRIIIA (CD16A), F158 allotype (human) (UniProt P08637); assay: BIAcore (as Table 27)
[10] = target: FcγRIIIA (CD16A), V158 allotype (human) (UniProt P08637); assay: BIAcore (as Table 27)
FcγRIIB (CD32B) (human) [11] = target: FcγRIIB (CD32B) (human) (UniProt P31994); assay: BIAcore (as Table 27)
[12] = target: FcγRIIIA (CD16A), V158 allotype (human) (UniProt P08637); assay: not stated; human FcRs
[13] = target: soluble dimeric FcγRIIB-Fc fusion protein (extracellular domain of FcγRIIB fused to hinge-CH2-CH3 of human IgG2) (human) (UniProt P31994); assay: SPR (BIAcore), Fc mutant in ch4-4-20, off rate relative to wild type
soluble dimeric FcγRIIB-Fc fusion protein (extracellular domain of FcγRIIB fused to hinge-CH2-CH3 of human IgG2) (human), sequence (P31994 43-217): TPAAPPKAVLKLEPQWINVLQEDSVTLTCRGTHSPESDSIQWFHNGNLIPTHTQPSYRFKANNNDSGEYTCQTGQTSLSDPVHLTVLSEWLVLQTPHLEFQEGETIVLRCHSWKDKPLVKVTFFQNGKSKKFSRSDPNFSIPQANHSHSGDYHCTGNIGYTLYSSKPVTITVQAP

FcγRIIIA (CD16A), F158 allotype (human), sequence (P08637 17-208 limits assumed): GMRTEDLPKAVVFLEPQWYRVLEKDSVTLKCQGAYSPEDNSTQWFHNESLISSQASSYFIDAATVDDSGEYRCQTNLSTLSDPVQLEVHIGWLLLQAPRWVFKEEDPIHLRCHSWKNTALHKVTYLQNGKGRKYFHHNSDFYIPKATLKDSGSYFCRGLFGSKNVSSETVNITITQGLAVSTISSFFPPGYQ
FcγRIIIA (CD16A), V158 allotype (human), sequence (P08637 17-208 F176V limits assumed): as the sequence (P08637 17-208 limits assumed) above, with F160V counted along it
FcγRIIIA on natural killer cells of human donor PBMC (human), sequence (P08637 17-254): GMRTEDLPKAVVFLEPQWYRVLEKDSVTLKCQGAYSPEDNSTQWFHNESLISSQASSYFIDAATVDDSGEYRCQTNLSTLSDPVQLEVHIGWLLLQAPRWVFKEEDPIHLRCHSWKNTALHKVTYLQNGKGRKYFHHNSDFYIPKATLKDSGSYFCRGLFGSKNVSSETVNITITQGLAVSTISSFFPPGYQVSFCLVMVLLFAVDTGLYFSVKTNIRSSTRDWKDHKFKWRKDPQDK
FcγRIIB (CD32B) (human), sequence (P31994 43-217 limits assumed): as the sequence (P31994 43-217) above
FcγRIIA (CD32A), H131 allotype (human), sequence (P12318 34-217 limits assumed): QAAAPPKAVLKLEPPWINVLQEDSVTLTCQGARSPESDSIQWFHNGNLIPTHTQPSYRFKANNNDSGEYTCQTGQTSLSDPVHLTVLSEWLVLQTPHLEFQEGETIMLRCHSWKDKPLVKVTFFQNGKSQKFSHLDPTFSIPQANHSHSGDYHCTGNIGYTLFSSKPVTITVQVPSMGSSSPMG

Substance	Koff WT/Koff mutant [5]	Koff WT/Koff mutant [6]	Koff WT/Koff mutant (FcγRIIB (CD32B) (human) [7])	Koff WT/Koff mutant [8]	Koff WT/Koff mutant [9]	Koff WT/Koff mutant [10]	Koff WT/Koff mutant (FcγRIIB (CD32B) (human) [11])	other results
ch4-4-20 MgFc52 (V240A, P396L) (antibody)								Relative rate of lysis (ADCC, vs wild type ch4-4-20) [1]: 2.35
immunoglobulin with Fc variant R292P (antibody)								fold change vs wild-type affinity [2]: 0.6 fold; fold change vs wild-type affinity (FcγRIIB (CD32B) (human) [3]): -2.7 fold; fold change vs wild-type affinity [4]: -0.5 fold
ch4-4-20 MgFc48 (V379M, P396L) (antibody)								Relative rate of lysis (ADCC, vs wild type ch4-4-20) [1]: 2.01
immunoglobulin with Fc variant F243L, R292P, P396L (antibody)								fold change vs wild-type affinity [2]: 2.4 fold; fold change vs wild-type affinity [12]: 5.3 fold; fold change vs wild-type affinity (FcγRIIB (CD32B) (human) [3]): -1.6 fold; fold change vs wild-type affinity [4]: 0.4 fold
ch4-4-20 MgFc44 (K334N, P396L) (antibody)								Relative rate of lysis (ADCC, vs wild type ch4-4-20) [1]: 2.43
ch4-4-20 MgFc62 (R292G) (antibody)								Koff WT/Mut [13]: 0.67
ch4-4-20 MgFc59 (K370E, P396L) (antibody)								Relative rate of lysis (ADCC, vs wild type ch4-4-20) [1]: 2.47
immunoglobulin with Fc variant R255L, D270E, P396L (antibody)								fold change vs wild-type affinity [2]: 0.7 fold; fold change vs wild-type affinity [12]: 0.3 fold; fold change vs wild-type affinity (FcγRIIB (CD32B) (human) [3]): -0.1 fold
immunoglobulin with Fc variant F243I, R292P, Y300L, V305I, P396L (antibody)	3.12		1.05	1.49	3.12		1.05	
ch4-4-20 MgFc61 (A330V) (antibody)								Koff WT/Mut [13]: 0.61
immunoglobulin with Fc variant F243L, D270E, G316D, R416G (antibody)	1.34	1.5	0.2	1.22	1.34	1.5	0.2	
ch4-4-20 MgFc54 (F243L, V305I, A378D, F404S, P396L) (antibody)								Relative rate of lysis (ADCC, vs wild type ch4-4-20) [1]: 3.59
immunoglobulin with Fc variant D270E, K392T, P396L (antibody)								fold change vs wild-type affinity [12]: 0.8 fold; fold change vs wild-type affinity (FcγRIIB (CD32B) (human) [3]): -0.3 fold; fold change vs wild-type affinity [4]: 0.9 fold
ch4-4-20 MgFc46 (P217S, P396L) (antibody)								Relative rate of lysis (ADCC, vs wild type ch4-4-20) [1]: 2.04
ch4-4-20 MgFc64 (E233G) (antibody)								Koff WT/Mut [13]: 0.54
ch4-4-20 MgFc57 (L242F, P396L) (antibody)								Relative rate of lysis (ADCC, vs wild type ch4-4-20) [1]: 2.4
ch4-4-20 MgFc63 (S298N, K360R, N361D) (antibody)								Koff WT/Mut [13]: 0.67
immunoglobulin with Fc variant F243L, R292P, V305I, P396L (antibody)								fold change vs wild-type affinity [12]: -3 fold; fold change vs wild-type affinity (FcγRIIB (CD32B) (human) [3]): -1.6 fold; fold change vs wild-type affinity [4]: -0.3 fold
ch4-4-20 MgFc42 (D221E, D270E, V308A, Q311H, P396L, G402D) (antibody)								Relative rate of lysis (ADCC, vs wild type ch4-4-20) [1]: 3.17
ch4-4-20 MgFc51 (Q419H, P396L) (antibody)								Relative rate of lysis (ADCC, vs wild type ch4-4-20) [1]: 2.24
ch4-4-20 MgFc47 (K210M, P396L) (antibody)								Relative rate of lysis (ADCC, vs wild type ch4-4-20) [1]: 2.02
ch4-4-20 MgFc60 (P217S, P396L) (antibody)								Relative rate of lysis (ADCC, vs wild type ch4-4-20) [1]: 1.44
immunoglobulin with Fc variant P247L, D270E, N421K (antibody)								fold change vs wild-type affinity [12]: 0.9 fold; fold change vs wild-type affinity (FcγRIIB (CD32B) (human) [3]): -0.7 fold; fold change vs wild-type affinity [4]: 1 fold
ch4-4-20 MgFc50 (P247S, P396L) (antibody)								Relative rate of lysis (ADCC, vs wild type ch4-4-20) [1]: 2.1
ch4-4-20 MgFc65 (N276Y) (antibody)								Koff WT/Mut [13]: 0.64
ch4-4-20 MgFc55 (R255L, P396L) (antibody)								Relative rate of lysis (ADCC, vs wild type ch4-4-20) [1]: 2.79

Further lines, with some results ahead:

Koff WT/Koff mutant [5]	Koff WT/Koff mutant [6]	Koff WT/Koff mutant (FcγRIIB (CD32B) (human) [7])	Koff WT/Koff mutant [8]	Koff WT/Koff mutant [9]	Koff WT/Koff mutant [10]	Koff WT/Koff mutant (FcγRIIB (CD32B) (human) [11])	Substance	other results
1.81	1.49	2.35	1.22	1.81	1.49	2.35	immunoglobulin with Fc variant K392T, P396L (antibody)	
1.19	1.19	1.33	0.63	1.19	1.19	1.33	immunoglobulin with Fc variant P396L, Q419H (antibody)	
1.16	2.44	0.8	1.84				immunoglobulin with Fc variant P247L, D270E, Y300L, N421K (antibody)	
	1.64	0.68	1.7		1.64	0.68	immunoglobulin with Fc variant D270E, P396L, Q419H (antibody)	
3.45	2.3	0.32	0.98	3.45	2.3	0.32	immunoglobulin with Fc variant F243L, P247L, D270E, N421K (antibody)	
1.9	1.85	0.92	1.5	1.9	1.85	0.92	immunoglobulin with Fc variant R292P, V305I, P396L (antibody)	
	1.54	0.25	0.14		1.54	0.25	immunoglobulin with Fc variant R292G (antibody)	
		0.65	1.05			0.65	immunoglobulin with Fc variant R255L, D270E, R292G, P396L (antibody)	
1.39	1.09	2.22	1.34	1.39	1.09	2.22	immunoglobulin with Fc variant R255L, P396L (antibody)	
1.71	1.89	0.17	0.39	1.71	1.89	0.17	immunoglobulin with Fc variant F243L, P247L, N421K (antibody)	
2.44	3.16	0.44	1.7	2.44	3.16	0.44	immunoglobulin with Fc variant F243L, D270E, K392T, P396L (antibody)	
1.6	1.49	2.22	1.5	1.6	1.49	2.22	immunoglobulin with Fc variant F243L, P396L (antibody)	
1.74	1.52	0.87	2.6	1.74	1.52	0.87	immunoglobulin with Fc variant R255L, D270E, Y300L, P396L (antibody)	
1.15	1.46	0.26	1.11	1.15	1.46	0.26	immunoglobulin with Fc variant F243L, D270E, P396L, Q419H (antibody)	
1.37	1.14	0.37	1.79	1.37	1.14	0.37	immunoglobulin with Fc variant V284M, R292P, K370N (antibody)	
1.65	1.38	0.89	2.44	1.65	1.38	0.89	immunoglobulin with Fc variant D270E, P396L (antibody)	
2.11 and 1.28	1.59 and 1.32		1.56 and 0.75	1.28 and 2.11	1.32 and 1.59		immunoglobulin with Fc variant R292P, V305I (antibody)	
1.48	1.25	0.39	2.24	1.48	1.25	0.39	immunoglobulin with Fc variant D270E (antibody)	
1.64	1.75	0.38	1.44	1.64	1.75	0.38	immunoglobulin with Fc variant F243L, R255L, D270E, P396L (antibody)	
